Measurements published in the DeepSol protein solubility set.

experiment: soluble on expression in E. coli; label from the status in PepcDB or PDB records

Sequence | soluble on expression in E. coli
AGKATANAPTDAAITAASDFAALEKACAGRLGVTLLDTASGRRIGHRQDERFPMCSTFKSMLAATVLSQAERMPALLDRRVPVGEADLLSHAPVTRRHAGKDMTVRDLCRATIITSDNTAANLLFGVVGGPPAVTAFLRASGDTVSRSDRLEPELNSFAKGDPRDTTTPAAMAATLQRVVLGEVLQPASRQQLADWLIDNETGDACLRAGLGKRWRVGDKTGSNGEDARNDIAVLWPVAGGAPWVLTAYLQAGAISYEQRASVLAQVGRIADRLIG | soluble
MGSDKIHHHHHHMEPIMRNPEDALLDSWHQNAQAWIDAVRHGAIESRRQVTDQAILLAILGRQPERVLDLGCGEGWLLRALADRGIEAVGVDGDRTLVDAARAAGAGEVHLASYAQLAEAKVPVGKDYDLICANFALLHQDIIELLSAMRTLLVPGGALVIQTLHPWSVADGDYQDGWREESFAGFAGDWQPMPWYFRTLASWLNALDMAGLRLVSLQEPQHPQSAVPQSLLMVAERH | not soluble
MDFYYPNLNNDMWRIVGLLFFGDKDHFLNDTRKAFCREQIIDFLNEKGIALFDTASSIRRLQDNASDKFLEVVQPTDIAALLRQLPECRAIVTTGQKATDTLRAQLEVEEPKVGDYAEFVFEGRAMRLYRMPSSSRAYPLALDKKAAAYRIMYQDLQMVILEHHHHHH | soluble
MSYNEKSSKSIHEKRAIAKYAASLIEDGDCIFVDAGTTTYELIDYLEGKDILVVSNGLSHIDTLIQKNIKCYVIGGNIKISTKAITGCDALMCLSKFRFDKCFIGANGVHHTYGLTTPDTEEAILKECAINNSRKAYVLADDSKFGEISTIKFSDINKCVIITNEKPKDLEHHHHHH | not soluble
MSLTDVLTATYELYLAEGESPEGKARGIALEQTVEMPADCLPGDIAERMVGRIRTLEPRADHWVLEIDYPLAAIGGELTQCLNLLFGNISLQSGIRLVQVAWPPSLLRRWGGPGLGVSGLRARLDVGARPLLCAALKPMGLSAPALAARCAAFARGGVDLIKDDHGLADQPDAPFAERLNACQDAVRQANRRSGGRSLYLPNVTAAPQALGERLAAARDAGCEMVLISPWLTGLETLRWARDEYGLALMAHPAMTGGLFLPRHGISPALLLGELFRIAGADAVIYPNVGGRFRFSADTCQAINHALRRPLEGLASAWPTPGGGVDVKRAGHWKQAYGPDTILLIGGSLYAQGDIEAASRALMQAIRDEGHHHHHH | soluble
MAHHHHHHMRAIQTLFIHSDKRVFLFPNTSNRTKYPSLITFPKIVLYSTPEAKRYRCVQKYLSTDFSSCSDNPHEILGRILRVPQSRSSMRKMLFTIPGIDPIQGILNGSRVCNELIRIKDVTWNRPHLIHAFFDHLPVFRFFLRSLVTLHPRTHRLHIHLVRAIHDDSRRSFLFLSFIIVAHAWR | not soluble
GPGSMVPTLHPGEYIVFVPYTMLQVRRWFNAPLVNLSDVVVVKVSDDLSVCKRVVKCTSSRTQAEEWGKEHYVEVMPALYSPPAAQHTNGDDEDSTEIDSVANSERAYFDYVARNTVRSKDWDSCIDRIPNPSQWVWLEGDNKSESFDSRRCGPVPIECIRGLVLASIWPSPHTLQRPPPPPRASQLH | not soluble
ASELNIYSARHYNADFEIIKKFEEKTGIKVNHTQAKASELIKRLSLEGSNSPADIFITADISNLTEAKNLGLLSPVSSKYLEEFIPAHLRDKDKEWFAITKRARIIAYNKNTNIDISKMKNYEDLAKAEFKGEIVMRSATAPYSKTLLASIIANDGNKEAKAWAKGVLENLATNPKGGDRDQARQVFAGEAKFAVMNTYYIGLLKNSKNPKDVEVGNSLGIIFPNQDNRGTHINISGIAMTKSSKNQDAAKKFMEFMLSPEIQKILTDSNYEFPIRNDVELSQTVKDFGTFKEDQIPVSKIAENIKEAVKIYDEVGFRIEGR | soluble
VRSMGFLHRACRAPSSLPAPLMARPGRSVLARPAATPPGPLCATTRPRPPQGNQPPASRISNFPPKRHKTRVLAAAEDEVSAAVAALISAHGRRHHSLNNQAAAFHGQFAQNLNVGAGSCASAETTADAPTQALLGPADRQRRQRRAVRQWLVRWAAHPGRATRGFHNHRQ | not soluble
MGSDKIHHHHHHMIFSNLKLNDNEPIYIQLKNYISDMISKGLIPDNSKLPSTRELSQLLQVSRNSVVLTYEELKSEGLIYSISGKGTFVKSKNKSSNTTWSLNWDCLENTYSKKANELDIIKSEIPWSSDLISFKSISPDGDLFDMEELKKSFLNRISLEGHKLLNYGYAQGYKPLIDYLLEYMTNKGADISNKDILITNGFTEGFDIIMSSFTQEKDYIICENPTHNTAIKIMKSHNLNILGVDINEDGLDFNMLEDNLIKYKNKIKFAYITPSYHNPTGIVMTPENRYKFYNLMKKYNIAIIEDGFNEELLYNSSHIFPICSLDNMNNGVVYIGSFSKILFPGMRIGWIFADKKVINKLESVKRCRNIHVSFLDQGILFDYLSNGGFEKYIKKIRKFYGDKFNFAYKCIKKYIKTEYILGDGGLHIFIKLKNIDTRVLLEKCYEKNVIFMPGDLFFTDNSGFDTLRLGFSRLSFEDIEIGIKIIGETINEMF | not soluble
MGSDKIHHHHHHLLQAELGITSQRHFYSIGHLFPCGQLLERSRFNRRSKQLIWLVQFIRKAMSEMLPSDKLAIIDSFPLPLCQPVRNHRASIFKGLADIGYNASKHLWFYGFKVHMLVTLSGYILNYVVTPASVHDIKVVYELLEGCKQSVILGDLGYLSSELKKDLEQEGYHLWTPFRKNMTGAEEHNNWKVMAMRRTIETRFSELCRLFDIEHTLTRSLAGLQLRMEQIILAHNLRYFEMN | not soluble
GPGSMPPSTAAPYALRTDKLKPLEGYVAGCSVSPAEVASQVASSLQPVVLAICGSFNPIHNAHLKLYDAAKRSVDGADGRVVLGGFLSPVGDAYGKPGLRSAADRVHIMRKALCHHPDLNVDTWECQQPVYMRTFFVLQALEEHINAWYAESEPAAVEWLASHDRRVRVAFVCGADLFSSFWIPGCWQLRLLRQLLDSFHLVVVHRDGGRGCVRGADDFAHVCQTAPLLSETAEGGEKIEIDMSQYTFTFATFSAPDDTSSTAVRAAAMELARTPQGDAVTRAALQSRLRAMLPEAAVQSVVELYGKVLTS | not soluble
MIKEFCAENLTLLPTLDAGQVSRVELCDNLAVGGTTPSYGVIKEACQLLHDKKISVATMIRPRGGDFVYNDLELKAMEEDILKAVEAGSDALVLGLLTTENQLDTDAIEQLLPATQGLPLVFHMAFDHIPTDHQHQALDQLIDYGFVRVLTHGSPEATPITDNVEQLKSLVTYANKRIEIMIGGGVTAENCQNLSQLTGTAIVHGTKIILEHHHHHH | soluble
MKGTQMLALNKKCWDIVAPYFFQVDCLPKYGPYTASEDEIHLFDSIKGKKVLDIGCGSGHSLQYMAEHGAEELWGLDLSSTQIETAHETLQSWNPKLICGAMEEERDIPKGYFDIVYSIYALGWTSDLRKTLELIYSYVKPGGSFIFSWEHPVYSNLMYGTEEIAFSSSYHEETPITFETFKGEDVQATLYKRKMSTYINELNRVGFTIERIEEPLEHHHHHH | not soluble
MFSGKTSRLIELMERHILAGRKVTLFKPEIDSRYSENEVVTHKGIKLPAVIAPTDERFGEFLAARTRDSNVLGFDEAQFWKPSSRLPQHLEDLANSGRTVYVAALNRDHFGNPFRMTVDILAISDEIYTLSAVCSRCGSDAIFTQRIINGSPAFGEIIRIGGKDLYEPRCRNCFVWPSAQKRITDL | soluble
MAHHHHNSGPLEFTVSANTNPATDAVRESILANPGFGKYYTDHMVSIDYTVDEGWHNAQVIPYGPIQLDPSAIVLHYGQEIFEGLKAYRWADGSIVSFRPEANAARLQSSARRLAIPELPEEVFIESLRQLIAVDEKWVPPAGGEESLYLRPFVIATEPGLGVRPSNEYRYLLIASPAGAYFKGGIKPVSVWLSHEYVRASPGGTGAAKFGGNYAASLLAQAQAAEMGCDQVVWLDAIERRYVEEMGGMNLFFVFGSGGSARLVTPELSGSLLPGITRDSLLQLATDAGFAVEERKIDVDEWQKKAGAGEITEVFACGTAAVITPVSHVKHHDGEFTIADGQPGEITMALRDTLTGIQRGTFADTHGWMARLN | soluble
MGSDKIHHHHHHMRDTWRWTMTQNKRSGNRRTPTPELDSASLVPPTVPSVVDDVEGGKPNTVEFRATYSPLRVEFHPWANSHPEIDEEYLFLYWNDVLVDKKTFSKPIEPEELFILVPVDKLIEGPHRLHYEVTLYSDTHVSSRPLDIYIDKTPPLLPADDRLMLPDYVIREGVTEEYLAANGDKLVCTVPSFIGAEPGDVVKWFYSENGAGQEMVDMMTLTQEHIETLGPLGTSKPLELTFPGAFIRQSGNGTRYVRYEVQDRAGTQPQRALAVALESDLSLAPRELPPPRIKEAKGSDYQSTLEPGNAFDGVTFVIPDDADIRPNETVTVFWGQPGTLGGYSTSTPISPGALEYLIPSQYVPPHMSGRVELYYQIDKPDVPPSPSHYVTVRKIEGLPIVQCSDIRNRALNLRTLGESTTFTLESWPFRHTSQFVNAWIDGVESGNVTREIRLPIATALPVPSETGVMVLGSVTKTELLRLAINYQFRVSVEVSFDDKLSWLKFPDAAAQLEDKP | not soluble
GDSQDFSSSQSTSPVVHHRPIDQIALSTFEDTTPLKTDEVEQAWEHTQITYVDLRTGAHLGSGAERLARASLSLSKLYIADYVFDHGTQKEKEQAVEMIRKSDDDIADKLFDAYPNCIDSVAKKYQLEATQTYGRWG | not soluble
MPGLPEVAPGDDLAKLIAAVEPGLVDGDVLLVTSKIVSKAEGRIVRADDREAAIDAETVRVVARRGALRIVENRQGLVMAAAGVDASNTPSGTVLLLPEDPDASARAIRDGLRDTLGVDVGVVVTDTFGRPWRTGLTDVAIGAAGVRVLDDLRGGTDAYGNPLSATVVATADELAAAGDLVKGKAAGLPVAVVRGLPHVIAGDDEAGARAMVRGGRDDMFRLGTSEAVREAVTQRRTVRAFTDEPVDPGAVRRAVAAAVTAPAPHHTTPWRFVLLESAESRTRLLDAMRDAWIADLRGDRKTEESIAKRVRRGDVLRNAPYLVVPCMVMDGSHSYGDARRDAAEREMFVVATGAGVQNFLVALAGERLGSAWVSSTMFCRDVVRRALGLPESWEPMGAVAVGHAAEEPRDRPARDAGAFIEVRLEHHHHHH | soluble
EKAVLIGEKEADITFVTWGSQKGPILDVIEDLKEEGISANLLYLKMFSPFPTEFVKNVLSSANLVIDVESNYTAQAAQMIKLYTGIDIKNKILKYNGRHMTEDEILKSAKEILNKESLMVVLEDGS | not soluble
MSLRVAIEGCTQGHGTLDAIYASVEESCKQRGWDGVDILIIGGDFQSVRNAEDLSIMSCPVKYRHLGDFPKYYSGERKAPYLTIFIAGNHEASSHLWELYYGGWVAPNIYYMGAANILRFGPLRIAGLSGIWKGFDYRKPHHERLPFSGGDVKSWYHVREIDVRKLLQVQTQVDVGLSHDWPRAVELHGDHEWLFRKKPDFRNESRDGTLGSVAAEYVMDRLRPPHWFSAHMHVKFAAIKTYSEAQPEEGHHHHHH | soluble
MGSDKIHHHHHHMYIQIVFAVKGRNSLIHPSWENELHKYMTGFIQNNGQKLLAINGMPDHIHILIGMKPSCCLSDLIRELKKSSSSFIKDKKLSPYAFQWQEGYGAFSYSHSNLNQVIAYIMNQKEHHKKRTFKEEYLEFIQKFELEYNPKNLFEWMD | not soluble
